The text below walks through data of patent US8129349B2, “Treatment of disease by inducing cell apoptosis” (The Regents of the University of California, priority 2000, dated 2012).

The subject of this test is hepatic stellate cells. As to the kind of experiment: Apoptosis of activated stellate cells transfected with C/EBPβ constructs, annexin-V-PE binding. It counts as cell-based, mouse. The settings on record: apoptosis induced by dominant negative MEKK1, IκBα or RSK mutants or by lactacystin. In outline:
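Primary mouse hepatic stellate cells activated on collagen type I, co-transfected with MSV-C/EBPβ constructs (antisense, sense or Ala^217), CMV-GFP and p90RSK (1 μg each). Annexin-V-PE plasma-membrane binding read 4 h post-transfection, expressed as percentage of GFP-positive transfected cells that were annexin-V-PE positive.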

B1: C/EBPβ-Glu^217: modified murine C/EBPβ with mutation of Thr^217 to glutamic acid (SEQ ID NO:4), phosphorylation mimic (protein, listed as Mus musculus)
chain: MHRLLAWDAACLPPPPAAFRPMEVANFYYEPDCLAYGAKAARAAPRAPAAEPAIGEHERAIDFSPYLEPLAPAADFAAPAPAHHDFLSDLFADDYGAKPSKKPADYGYVSLGRAGAKAAPPACFPPPPPAALKAEPGFEPADCKRADDAPAMAAGFPFALRAYLGYQATPSGSSGSLSTSSSSSPPGTPSPADAKAAPAACFAGPPAAPAKAKAKKZVDKLSDEYKMRRERNNIAVRKSRDKAKMRNLETQHKVLELTAENERLQKKVEQLSRELSTLRNLFKQLPEPLLASAGHC
In the case of B1, the “Rescue from induced apoptosis by expressed construct” value is listed as “partially inhibited”.
